Source: paper PMC13039401

Target: MdtJ-His6 (Lawsonia intracellularis MdtJ, orphan, Cys-less)
Assay: size exclusion chromatography with densitometry of blot fractions
Conditions: parent: est. 36; read off a plot

Question: For “FtsH-His6 (E. coli FtsH, wild type) (from UniProt P0AAI3) S2K; K6A; N7L; Q23L”, which response is on record?
Answer: 11%
